Data reported in the supplement of paper PMC7877785.
± gives the uncertainty stated by the source.

Experiment: self-splicing fitness, log relative to wild type (ln ratio); higher = more splicing; Tetrahymena group I intron in knt gene, E. coli kanamycin selection, DiMSum; sequences stand for … in CUCUCU…GGAGGGAAAAGUUAUCAGGCAUGCACCUGGUAGCUAGUCUUUAAACCAAUAGAUUGCAUCGGUUUAAAAGGCAAGACCGUCAAAUUGCGGGAAAGGGGUCAACAGCCGUUCAGUACCAAGUCUCAGGGGAAACUUUGAGAUGGCCUUGCAAAGGGUAUGGUAAUAAGCUGACGGACAUGGUCCUAACCACGCAGCCAAGUCCUAAGUCAACAGAUCUUCUGUUGAUAUGGAUGCAGUUCACAGACUAAAUGUCGGUCGGGGAAGAUGUAUUCUUCUCAUAAGAUAUAGUCGGACCUCUCCUUAAUGGGAGCUAGCGGAUGAAGUGAUGCAACACUGGAGCCGCUGGGAACUAAUUUGUAUGCGAAAGUAUAUUGAUUAGUUUUGGAGUACUCGUGGUCG
Procedure, shortened: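 Library with all eight P1ex-region intron nucleotides randomised, intron inside the knt kanamycin-resistance gene on pET-22b(+), in E. coli BL21(DE3). Cells grew overnight at 37°C or 30°C on LB agar with or without 25 μg/mL kanamycin (plus 100 μg/mL carbenicillin, 50 μM IPTG, 0.2% rhamnose), in six replicate transformations. Pooled colonies were amplicon-sequenced on Illumina HiSeq 2500. DiMSum fitness is the error-weighted combination of wild-type-normalised replicate fold changes, kanamycin versus none.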

Sequence | self-splicing fitness (ln) (30 °C) | self-splicing fitness (ln) (37 °C)
GUCCAGCAAUAUUACGCCCU | -0.888 ± 0.13 | -0.617 ± 0.18
GUCCAGCAAUAUUACGCCUA | -0.215 ± 0.095 | -0.244 ± 0.093
GUCCAGCAAUAUUACGCGUG | -1.04 ± 0.063 | -0.469 ± 0.068
GUCCAGCAAUAUUACGCUAU | -0.823 ± 0.055 | -0.104 ± 0.071
GUCCAGCAAUAUUACGCUGU | -0.609 ± 0.073 | -0.386 ± 0.076
GUCCAGCAAUAUUACGGAUA | -0.361 ± 0.056 | 0.0186 ± 0.063
GUCCAGCAAUAUUACGGCAC | -1.17 ± 0.064 | -0.348 ± 0.092
GUCCAGCAAUAUUACGGCAG | – | -2.06 ± 0.2
GUCCAGCAAUAUUACGGGAC | -3.53 ± 0.2 | -2.94 ± 0.31
GUCCAGCAAUAUUACGGGCG | -2.53 ± 0.12 | -0.72 ± 0.099
GUCCAGCAAUAUUACGGGGA | -2.41 ± 0.13 | -1.37 ± 0.12
GUCCAGCAAUAUUACGGGUG | -0.386 ± 0.052 | 0.0761 ± 0.067
GUCCAGCAAUAUUACGGUCU | -2.7 ± 0.12 | -1.2 ± 0.12
GUCCAGCAAUAUUACGUAGU | -0.119 ± 0.062 | 0.398 ± 0.08
GUCCAGCAAUAUUACGUCCU | -1.77 ± 0.13 | -0.83 ± 0.12
GUCCAGCAAUAUUACGUGCC | -1.16 ± 0.086 | -0.944 ± 0.11
GUCCAGCAAUAUUACGUUGU | -0.537 ± 0.051 | 0.244 ± 0.066
GUCCAGCAAUAUUACGUUUA | -0.851 ± 0.08 | -0.0697 ± 0.076
GUCCAGCAAUAUUACGUUUU | -1.19 ± 0.052 | -0.221 ± 0.069
GUCGAGCAAUAUUACGAAAU | – | -1.29 ± 0.49
GUCGAGCAAUAUUACGAAGA | -3.82 ± 0.43 | -1.74 ± 0.31
GUCGAGCAAUAUUACGACGG | – | -1.72 ± 0.43
GUCGAGCAAUAUUACGAGAC | – | 0.237 ± 0.43
GUCGAGCAAUAUUACGAUCC | -1.82 ± 0.17 | -0.489 ± 0.22
GUCGAGCAAUAUUACGAUGC | -1.17 ± 0.18 | -1.09 ± 0.18
GUCGAGCAAUAUUACGCCUA | – | -1.1 ± 0.41
GUCGAGCAAUAUUACGCGAA | -1.39 ± 0.17 | 0.0361 ± 0.17

Sequence | self-splicing fitness (ln) (30 °C) | self-splicing fitness (ln) (37 °C)
GUCGAGCAAUAUUACGCGAG | -0.678 ± 0.096 | -0.901 ± 0.12
GUCGAGCAAUAUUACGCUCA | -0.929 ± 0.21 | -0.388 ± 0.22
GUCGAGCAAUAUUACGCUUU | -1.81 ± 0.18 | -1.92 ± 0.2
GUCGAGCAAUAUUACGGAGU | -3.59 ± 0.19 | -0.791 ± 0.094
GUCGAGCAAUAUUACGGAUU | -2.03 ± 0.26 | -0.691 ± 0.21
GUCGAGCAAUAUUACGGCAC | -1.29 ± 0.18 | -0.213 ± 0.2
GUCGAGCAAUAUUACGGCUU | – | -0.65 ± 0.49
GUCGAGCAAUAUUACGGUUU | -1.86 ± 0.11 | -1.44 ± 0.13
GUCGAGCAAUAUUACGUAGA | -2.65 ± 0.17 | -1.88 ± 0.24
GUCGAGCAAUAUUACGUAGC | -1.18 ± 0.16 | -0.606 ± 0.22
GUCGAGCAAUAUUACGUAUA | -3.54 ± 0.25 | -1.63 ± 0.18
GUCGAGCAAUAUUACGUCAA | -2.62 ± 0.29 | -2.32 ± 0.22
GUCGAGCAAUAUUACGUCAG | -3.08 ± 0.16 | -2.98 ± 0.19
GUCGAGCAAUAUUACGUCUA | -1.76 ± 0.46 | -0.965 ± 0.33
GUCGAGCAAUAUUACGUGCG | -2.9 ± 0.17 | -2 ± 0.17
GUCGAGCAAUAUUACGUUCG | -3.55 ± 0.3 | -1.86 ± 0.25
GUCUAGCAAUAUUACGAAUG | -2.56 ± 0.21 | -1.43 ± 0.19
GUCUAGCAAUAUUACGACAG | -2.33 ± 0.18 | -1.71 ± 0.3
GUCUAGCAAUAUUACGAUAA | -1.09 ± 0.22 | 0.55 ± 0.23
GUCUAGCAAUAUUACGAUGG | -3.48 ± 0.17 | -0.823 ± 0.17
GUCUAGCAAUAUUACGCACU | -0.628 ± 0.047 | 0.389 ± 0.063
GUCUAGCAAUAUUACGCAGC | -2.29 ± 0.14 | -0.0809 ± 0.12
GUCUAGCAAUAUUACGCCAG | -2.46 ± 0.4 | –
GUCUAGCAAUAUUACGCCUC | -0.0816 ± 0.058 | -0.181 ± 0.068
GUCUAGCAAUAUUACGCGCU | -1.29 ± 0.19 | -0.353 ± 0.15
GUCUAGCAAUAUUACGCGUU | -0.17 ± 0.063 | -0.000183 ± 0.069
GUCUAGCAAUAUUACGGAAC | -1.15 ± 0.26 | 1.15 ± 0.16

Sequence | self-splicing fitness (ln) (30 °C) | self-splicing fitness (ln) (37 °C)
GUCUAGCAAUAUUACGGAGC | -1.04 ± 0.15 | -1.02 ± 0.18
GUCUAGCAAUAUUACGGCCU | -2.09 ± 0.19 | -1.19 ± 0.16
GUCUAGCAAUAUUACGGUAG | – | -1.54 ± 0.26
GUCUAGCAAUAUUACGGUUC | -0.596 ± 0.089 | 0.433 ± 0.096
GUCUAGCAAUAUUACGGUUG | -2.54 ± 0.092 | -1.53 ± 0.1
GUCUAGCAAUAUUACGUAAU | -0.317 ± 0.1 | 0.597 ± 0.12
GUCUAGCAAUAUUACGUAUA | -1.41 ± 0.13 | -0.887 ± 0.12
GUCUAGCAAUAUUACGUCAC | -2.9 ± 0.24 | -3.04 ± 0.43
GUCUAGCAAUAUUACGUCUC | 0.162 ± 0.096 | -0.048 ± 0.096
GUCUAGCAAUAUUACGUGCA | -1.38 ± 0.096 | -0.535 ± 0.1
GUCUAGCAAUAUUACGUGUG | -0.5 ± 0.063 | -0.649 ± 0.079
GUCUAGCAAUAUUACGUUGA | -1.64 ± 0.2 | -1.12 ± 0.23
GUCUAGCAAUAUUACGUUGU | -0.779 ± 0.055 | -0.582 ± 0.065
GUGAAGCAAUAUUACGAAAU | -0.716 ± 0.11 | -0.0167 ± 0.12
GUGAAGCAAUAUUACGAAUA | -1.91 ± 0.1 | -0.485 ± 0.23
GUGAAGCAAUAUUACGAAUU | -0.957 ± 0.18 | -0.439 ± 0.21
GUGAAGCAAUAUUACGAGGA | – | -0.805 ± 0.32
GUGAAGCAAUAUUACGAUGG | -2.31 ± 0.11 | 0.388 ± 0.13
GUGAAGCAAUAUUACGCCAU | -2.07 ± 0.13 | -1.14 ± 0.15
GUGAAGCAAUAUUACGCGGA | -1.24 ± 0.09 | -1.13 ± 0.14
GUGAAGCAAUAUUACGCGGU | -3.01 ± 0.28 | -0.0814 ± 0.17
GUGAAGCAAUAUUACGGAAC | 0.76 ± 0.34 | –
GUGAAGCAAUAUUACGGCCU | 0.395 ± 0.068 | 0.277 ± 0.085
GUGAAGCAAUAUUACGGGAG | -2.09 ± 0.1 | -0.567 ± 0.094
GUGAAGCAAUAUUACGGGGC | -2.91 ± 0.23 | -3.35 ± 0.35
